Measured values: PMC9898101

System: MBP-ERS WT (human)
Assay: EMSA
Conditions: 1 mM Mg2+; 5 ug/mL heparin (unit prefix not given); none (in vitro transcript); 25 mM Tris-HCl pH 7.5, 50 mM NaCl, 1 mM MgCl2, 1 mM DTT, 5 ug/mL heparin (prefix not given), 10 nM 32P-tRNA, room temperature 30 min; native 4-16% gel on …

human tRNAGlu(TTC)
Kd: 516 nM
